Columns and labels:
[1] = target: T1, UV excision repair protein HHR23A (RAD23A), P54725
T1 chain: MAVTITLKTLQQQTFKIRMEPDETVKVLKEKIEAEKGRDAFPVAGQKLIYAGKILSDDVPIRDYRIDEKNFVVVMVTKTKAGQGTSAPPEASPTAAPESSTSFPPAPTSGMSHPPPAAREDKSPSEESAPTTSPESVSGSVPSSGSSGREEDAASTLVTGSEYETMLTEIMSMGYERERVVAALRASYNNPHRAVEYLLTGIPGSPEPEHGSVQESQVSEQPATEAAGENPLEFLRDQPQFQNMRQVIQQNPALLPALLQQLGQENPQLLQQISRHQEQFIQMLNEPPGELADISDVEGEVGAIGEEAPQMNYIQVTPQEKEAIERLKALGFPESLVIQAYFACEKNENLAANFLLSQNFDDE

[2] = target: protein Arg methyltransferase 5 (PRMT5), O14744
Chain of protein Arg methyltransferase 5 (PRMT5), O14744 (O14744 whole entry): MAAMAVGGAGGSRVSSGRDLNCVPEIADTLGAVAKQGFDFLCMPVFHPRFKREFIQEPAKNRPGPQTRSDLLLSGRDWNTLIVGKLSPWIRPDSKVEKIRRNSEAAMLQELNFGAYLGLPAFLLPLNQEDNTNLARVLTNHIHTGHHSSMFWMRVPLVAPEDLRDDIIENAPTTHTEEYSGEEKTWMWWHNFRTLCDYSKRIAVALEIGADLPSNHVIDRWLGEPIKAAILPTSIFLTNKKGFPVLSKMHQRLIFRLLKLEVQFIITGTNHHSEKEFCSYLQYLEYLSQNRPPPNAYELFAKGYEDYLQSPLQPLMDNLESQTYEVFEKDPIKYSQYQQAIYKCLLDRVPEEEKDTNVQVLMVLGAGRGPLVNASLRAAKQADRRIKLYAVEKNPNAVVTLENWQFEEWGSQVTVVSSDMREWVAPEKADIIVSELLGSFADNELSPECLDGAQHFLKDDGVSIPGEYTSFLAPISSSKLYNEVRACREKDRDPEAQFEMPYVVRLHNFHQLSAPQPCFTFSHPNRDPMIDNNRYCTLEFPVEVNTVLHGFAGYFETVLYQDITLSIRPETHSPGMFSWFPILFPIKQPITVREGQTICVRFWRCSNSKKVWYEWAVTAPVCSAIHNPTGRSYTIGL

CDK4, P11802 = target: T2, CDK4, P11802
T2 chain: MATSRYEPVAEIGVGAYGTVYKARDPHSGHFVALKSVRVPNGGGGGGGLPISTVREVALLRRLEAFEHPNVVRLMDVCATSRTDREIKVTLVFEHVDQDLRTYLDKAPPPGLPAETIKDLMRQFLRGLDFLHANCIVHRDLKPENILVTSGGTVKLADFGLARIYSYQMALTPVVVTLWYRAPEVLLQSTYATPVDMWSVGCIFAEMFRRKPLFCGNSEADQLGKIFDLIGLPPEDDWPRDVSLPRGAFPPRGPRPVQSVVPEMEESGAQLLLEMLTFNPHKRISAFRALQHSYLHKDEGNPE

[3] = target: T3, FAS-associated factor UbxD8, Q96CS3
T3 chain: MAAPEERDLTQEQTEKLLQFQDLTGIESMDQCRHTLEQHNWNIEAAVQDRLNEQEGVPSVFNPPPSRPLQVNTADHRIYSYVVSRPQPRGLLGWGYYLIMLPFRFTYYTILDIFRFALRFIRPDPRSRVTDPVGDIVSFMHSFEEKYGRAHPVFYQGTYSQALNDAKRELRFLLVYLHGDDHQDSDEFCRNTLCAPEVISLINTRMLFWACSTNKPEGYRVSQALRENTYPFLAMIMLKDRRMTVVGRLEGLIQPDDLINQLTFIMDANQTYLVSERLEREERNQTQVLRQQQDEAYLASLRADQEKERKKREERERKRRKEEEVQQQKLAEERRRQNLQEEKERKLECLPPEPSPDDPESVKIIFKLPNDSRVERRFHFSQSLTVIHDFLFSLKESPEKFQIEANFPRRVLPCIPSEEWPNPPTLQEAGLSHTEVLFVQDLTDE

β-catenin, P35222 = target: T4, β-catenin, P35222
T4 chain: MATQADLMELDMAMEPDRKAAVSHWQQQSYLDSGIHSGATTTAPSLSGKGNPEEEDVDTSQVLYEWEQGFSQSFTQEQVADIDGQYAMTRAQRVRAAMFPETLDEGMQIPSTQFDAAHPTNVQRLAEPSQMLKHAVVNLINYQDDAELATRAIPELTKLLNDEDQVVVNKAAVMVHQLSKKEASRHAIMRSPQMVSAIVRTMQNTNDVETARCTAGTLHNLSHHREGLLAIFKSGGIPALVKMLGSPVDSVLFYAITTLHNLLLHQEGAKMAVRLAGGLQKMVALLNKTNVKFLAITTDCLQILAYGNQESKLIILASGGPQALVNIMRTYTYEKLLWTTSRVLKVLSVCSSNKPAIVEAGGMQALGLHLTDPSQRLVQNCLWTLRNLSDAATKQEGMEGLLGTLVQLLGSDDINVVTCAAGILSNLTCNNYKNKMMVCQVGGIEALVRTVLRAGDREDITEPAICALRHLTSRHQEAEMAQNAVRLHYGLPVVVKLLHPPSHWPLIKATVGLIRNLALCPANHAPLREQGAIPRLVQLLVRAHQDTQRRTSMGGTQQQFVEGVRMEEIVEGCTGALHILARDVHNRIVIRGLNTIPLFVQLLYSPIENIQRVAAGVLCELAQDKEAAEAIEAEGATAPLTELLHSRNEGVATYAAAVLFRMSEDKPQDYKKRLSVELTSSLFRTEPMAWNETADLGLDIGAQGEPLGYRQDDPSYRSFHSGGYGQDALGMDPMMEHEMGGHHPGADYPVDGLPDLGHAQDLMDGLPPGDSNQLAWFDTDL

B1: wt E6AP (full-length) (protein)
chain: MKRAAAKHLIERYYHQLTEGCGNEACTNEFCASCPTFLRMDNNAAAIKALELYKINAKLCDPHPSKKGASSAYLENSKGAPNNSCSEIKMNKKGARIDFKDVTYLTEEKVYEILELCREREDYSPLIRVIGRVFSSAEALVQSFRKVKQHTKEELKSLQAKDEDKDEDEKEKAACSAAAMEEDSEASSSRIGDSSQGDNNLQKLGPDDVSVDIDAIRRVYTRLLSNEKIETAFLNALVYLSPNVECDLTYHNVYSRDPNYLNLFIIVMENRNLHSPEYLEMALPLFCKAMSKLPLAAQGKLIRLWSKYNADQIRRMMETFQQLITYKVISNEFNSRNLVNDDDAIVAASKCLKMVYYANVVGGEVDTNHNEEDDEEPIPESSELTLQELLGEERRNKKGPRVDPLETELGVKTLDCRKPLIPFEEFINEPLNEVLEMDKDYTFFKVETENKFSFMTCPFILNAVTKNLGLYYDNRIRMYSERRITVLYSLVQGQQLNPYLRLKVRRDHIIDDALVRLEMIAMENPADLKKQLYVEFEGEQGVDEGGVSKEFFQLVVEEIFNPDIGMFTYDESTKLFWFNPSSFETEGQFTLIGIVLGLAIYNNCILDVHFPMVVYRKLMGKKGTFRDLGDSHPVLYQSLKDLLEYEGNVEDDMMITFQISQTDLFGNPMMYDLKENGDKIPITNENRKEFVNLYSDYILNKSVEKQFKAFRRGFHMVTNESPLKYLFRPEEIELLICGSRNLDFQALEETTEYDGGYTRDSVLIREFWEIVHSFTDEQKRLFLQFTTGTDRAPVGGLGKLKMIIAKNGPDTERLPTSHTCFNVLLLPEYSSKEKLKERLLKAITYAKGFGML
Wt UbcH7 (human E2)
  full-length E6AP auto-ubiquitination with wt UB, Western blot: wt E6AP can be auto-ubiquitinated by the wt Uba1-UbcH7 pair
[1]
  in vitro substrate ubiquitination with wt UB through Uba1-UbcH7-E6AP, Western blot: E6AP-catalyzed ubiquitination of HHR23A, a previously identified E6AP substrate, was confirmed
[2]
  in vitro substrate ubiquitination with wt UB through Uba1-UbcH7-E6AP, Western blot: MAPK1, PRMTS, and UbxD8 mainly generated species with one or two conjugated UBs
CDK4, P11802
  in vitro substrate ubiquitination with wt UB through Uba1-UbcH7-E6AP, Western blot: CDK1, CDK4 and β-catenin were strongly ubiquitinated by E6AP with the formation of high molecular weight bands
[3]
  in vitro substrate ubiquitination with wt UB through Uba1-UbcH7-E6AP, Western blot: MAPK1, PRMTS, and UbxD8 mainly generated species with one or two conjugated UBs
p53, P04637
Chain of p53, P04637 (P04637 whole entry, looked up): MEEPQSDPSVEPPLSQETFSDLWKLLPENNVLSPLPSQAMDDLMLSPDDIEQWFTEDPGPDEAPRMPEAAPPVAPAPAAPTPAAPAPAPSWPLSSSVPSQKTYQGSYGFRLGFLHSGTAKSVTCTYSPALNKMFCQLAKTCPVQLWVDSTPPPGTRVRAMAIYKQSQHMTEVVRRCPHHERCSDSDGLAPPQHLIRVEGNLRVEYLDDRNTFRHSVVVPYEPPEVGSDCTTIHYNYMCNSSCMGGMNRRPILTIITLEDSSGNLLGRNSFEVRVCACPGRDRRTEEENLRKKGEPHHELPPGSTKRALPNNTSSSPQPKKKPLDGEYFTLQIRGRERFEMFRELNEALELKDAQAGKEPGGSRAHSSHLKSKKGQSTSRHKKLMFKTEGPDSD
  p53 ubiquitination in the presence of E6, Western blot: p53 can be efficiently ubiquitinated by wt UB through the wt Uba1-UbcH7-E6AP cascade in the presence of E6
CDK1, P06493
Chain of CDK1, P06493 (P06493 whole entry, looked up): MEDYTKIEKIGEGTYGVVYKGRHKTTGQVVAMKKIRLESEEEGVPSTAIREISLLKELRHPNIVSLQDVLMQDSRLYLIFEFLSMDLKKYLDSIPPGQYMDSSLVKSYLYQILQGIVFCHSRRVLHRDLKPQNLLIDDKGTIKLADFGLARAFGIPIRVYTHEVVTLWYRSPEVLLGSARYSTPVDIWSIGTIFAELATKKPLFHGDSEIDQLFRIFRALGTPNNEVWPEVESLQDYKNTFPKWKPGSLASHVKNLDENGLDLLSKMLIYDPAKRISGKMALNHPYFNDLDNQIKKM
  in vitro substrate ubiquitination with wt UB through Uba1-UbcH7-E6AP, Western blot: CDK1, CDK4 and β-catenin were strongly ubiquitinated by E6AP with the formation of high molecular weight bands
MAPK1, P28482
Chain of MAPK1, P28482 (P28482 whole entry): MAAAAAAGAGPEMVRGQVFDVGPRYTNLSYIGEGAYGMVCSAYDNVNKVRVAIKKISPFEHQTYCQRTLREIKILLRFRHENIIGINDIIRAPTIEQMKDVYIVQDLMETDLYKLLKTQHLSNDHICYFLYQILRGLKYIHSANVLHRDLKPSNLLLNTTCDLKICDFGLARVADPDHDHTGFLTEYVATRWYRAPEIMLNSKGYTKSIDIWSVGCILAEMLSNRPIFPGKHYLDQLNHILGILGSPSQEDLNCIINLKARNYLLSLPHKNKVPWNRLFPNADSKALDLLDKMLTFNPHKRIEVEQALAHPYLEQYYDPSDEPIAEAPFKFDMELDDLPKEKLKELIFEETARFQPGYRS
  in vitro substrate ubiquitination with wt UB through Uba1-UbcH7-E6AP, Western blot: MAPK1, PRMTS, and UbxD8 mainly generated species with one or two conjugated UBs
β-catenin, P35222
  in vitro substrate ubiquitination with wt UB through Uba1-UbcH7-E6AP, Western blot: CDK1, CDK4 and β-catenin were strongly ubiquitinated by E6AP with the formation of high molecular weight bands

Source: patent US20200199576
